Assay [1] deals with T1, GST-Kic1(1-359)-His6 (wild type) (S. cerevisiae) (UniProt P38692).
T1 sequence: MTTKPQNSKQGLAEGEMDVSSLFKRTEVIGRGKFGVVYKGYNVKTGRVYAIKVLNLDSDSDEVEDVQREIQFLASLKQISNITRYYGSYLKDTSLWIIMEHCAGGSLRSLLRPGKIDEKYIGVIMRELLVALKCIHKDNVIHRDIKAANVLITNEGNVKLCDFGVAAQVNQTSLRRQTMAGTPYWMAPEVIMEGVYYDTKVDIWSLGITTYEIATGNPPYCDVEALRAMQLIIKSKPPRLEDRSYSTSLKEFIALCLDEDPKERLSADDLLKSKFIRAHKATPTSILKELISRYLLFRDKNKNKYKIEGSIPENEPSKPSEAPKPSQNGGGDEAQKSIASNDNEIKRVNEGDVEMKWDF

Assay [2] deals with T1, GST-Kic1(1-359)-His6 (wild type) (S. cerevisiae). This is another data set of the same source.

B1: Hym1-His6 (full length, GST cleaved) (natural protein)
chain: MFKKYKNQDLDMAFWWKKNPKTPSDYARLIIEQLNKFSSPSLTQDNKRKVQEECTKYLIGTKHFIVGDTDPHPTPEAIDELYTAMHRADVFYELLLHFVDLEFEARRECMLIFSICLGYSKDNKFVTVDYLVSQPKTISLMLRTAEVALQQKGCQDIFLTVGNMIIECIKYEQLCRIILKDPQLWKFFEFAKLGNFEISTESLQILSAAFTAHPKLVSKEFFSNEINIIRFIKCINKLMAHGSYVTKRQSTKLLASLIVIRSNNALMNIYINSPENLKLIMTLMTDKSKNLQLEAFNVFKVMVANPRKSKPVFDILVKNRDKLLTYFKTFGLDSQDSTFLDEREFIVQEIDSLPRIISSTTEVSNNNASSSNVASITSPSSVMNNQSSILTHSTSPDSR
For B1, in assay [1], the half maximal activation (Kact) of Kic1 kinase activity (32P transferred to GST-Cbk1(673-756)-His6); Hym1 in 2-fold serial dilutions from 13 µM, Kic1 constant at 0.5 µM stood at 2 µM. In assay [2], this molecule yielded a Kic1 kinase activity (reaction rate over 15 min on GST-Cbk1(673-756)-His6) with Hym1 relative to without Hym1 greater than 5 fold.

The record behind these values is paper PMC3804511.
